Source: PMC2701924, “Molecular cloning and expression of a novel trehalose synthase gene from Enterobacter hormaechei” (Microbial Cell Factories, 2009)

Substrate: OC[C@H]1O[C@H](O[C@H]2O[C@H](CO)[C@@H](O)[C@H](O)[C@H]2O)[C@H](O)[C@@H](O)[C@@H]1O
Test: initial rates, ion chromatography of products, Lineweaver-Burk
Assay type: biochemical, Enterobacter hormaechei
Conditions: substrate 1-200 mM, pH and temperature not stated for kinetics (standard assay 50 mM phosphate pH 6, 37°C), reverse reaction

B1: recombinant TreS (Enterobacter hormaechei trehalose synthase) (Enterobacter hormaechei) (protein)
chain: MAGWHTRAIIYQIDTALFYDLNGDGCGDIAGITAKLRYIRRMGATVIWITPFYLTPFLDEGYDVSDHLQVDPRFGKLNDIIAFIEQARELGMQVIIELLIQHTSDAHPWFQQARRNPQSPYRDYYLWSDTDDDDTPPMFPGVEKSIWTWDDEAGQYYRHMFYHHEPDLNLASPAVLKEVENIIIFWLKLGVSGFRLDAASHLTKQAGRGDEKRGLWILEHLRCLIGQRNPDAILLGEVDVEVEAYKDYFGQNDRLNLVLNFWLNKYFYVSLAEKSARPLRNAVKKMIVPPDSCCFANWLRNHDELDLEGIGKKAKQTVIDTFAPDEEMSVYQRGIRRRLAPMLNGDRKRLAFCHAVLFSLPGVPVMRYGDEIGMGDDLDLEERYAVRTPMQWAGSQGGGFSDADPETFVAPMIDHGPYRYQKINVADSLLHRNSLLHCIIDIANTRSEFPEIGVAPFRLINIDSDAVLGIYYETDTRSILTFVNFSDKPVNFTARGIRHATWTACLADKRYDDALVCGKTVALNLSGYGYRWFWTDRTALR
notes: pET30a(+) Nco I/Not I; 46 additional N-terminal residues incl; 6-His tag kept; about 65 kDa on SDS-PAGE; expressed in E. coli BL21(DE3) plysS, Ni-NTA
Km: 75 mM
